Laboratory results taken from article PMC3226451.

Experiments:
L19-UG-TNFRII (human) [1] = molecular target: L19-UG-TNFRII (human) (UniProt P20333); assay: SEC; Superdex 200 (S200) FPLC of purified L19-UG-TNFRII in native conditions
L19-UG-TNFRII (human) [2] = molecular target: L19-UG-TNFRII (human) (UniProt P20333); assay: SDS-PAGE, non-reducing; SDS-PAGE 4%-12% of purified L19-UG-TNFRII under non-reducing conditions

- stoichiometry N (L19-UG-TNFRII (human) [1]): 2
- stoichiometry N (L19-UG-TNFRII (human) [2]): 2
Substance: L19-UG-TNFRII (from UniProt P20333 23-257)
